Assay results published in PMC7210950 (2020).
Square brackets hold non-standard residues; d marks the D form. Ends that are not written are not given here. pY = N[C@@H](Cc1ccc(OP(=O)(O)O)cc1)C(=O)O

Experiments:
Experiment in all cases: FP
[1] = target: Btk SH2 domain S371P (XLA mutation) (human, UniProt Q06187 271-383, S371P)
[2] = target: Btk SH2 domain, wild-type (recombinant) (human, UniProt Q06187 271-383)
[3] = target: Btk SH2 domain R372G (XLA mutation) (human, UniProt Q06187 271-383, R372G)
Chain of Btk SH2 domain R372G (XLA mutation) (Q06187 271-383 R372G): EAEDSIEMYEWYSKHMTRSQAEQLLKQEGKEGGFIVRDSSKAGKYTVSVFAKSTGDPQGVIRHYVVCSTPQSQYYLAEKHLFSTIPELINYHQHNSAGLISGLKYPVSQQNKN

[4] = target: Btk SH2 domain K374N (XLA mutation) (human, UniProt Q06187 271-383, K374N)
Chain of Btk SH2 domain K374N (XLA mutation) (Q06187 271-383 K374N): as the sequence (Q06187 271-383 R372G) above, with G102R, K104N counted along it

[5] = target: Btk SH2 domain H364D (XLA mutation) (human, UniProt Q06187 271-383, H364D)
Chain of Btk SH2 domain H364D (XLA mutation) (Q06187 271-383 H364D): as the sequence (Q06187 271-383 R372G) above, with H94D, G102R counted along it

[6] = target: Btk SH2 domain K296E (XLA mutation) (human, UniProt Q06187 271-383, K296E)
Chain of Btk SH2 domain K296E (XLA mutation) (Q06187 271-383 K296E): as the sequence (Q06187 271-383 R372G) above, with K26E, G102R counted along it

Chain of Btk SH2 domain, wild-type (recombinant) (Q06187 271-383): as the sequence (Q06187 271-383 R372G) above, with G102R counted along it
Chain of Btk SH2 domain S371P (XLA mutation) (Q06187 271-383 S371P): as the sequence (Q06187 271-383 R372G) above, with S101P, G102R counted along it

Kd [1]: 5.7 µM
Kd [2]: 7.1 µM
Kd [3]: 5.8 µM
Kd [4]: 8.7 µM
Kd [5]: 6.9 µM
Kd [6]: 21.8 µM
Binder: ADND[pY]IIPLPD (also: FITC label, end not given here) [FITC-labeled pY-peptide (ADNDpYIIPLPD)]
